# Assay results as given in the DeepSol protein solubility set.
# Assay: soluble on expression in E. coli; label from the status in PepcDB or PDB records
row,Sequence,soluble on expression in E. coli
1,MAHHHHHHMSTAKSFPMAQLSTRAQYSRMQREFVQLQRQENPRNINFTTSLKNRHKNRYLDILANEETIYPPVLKAVGAQPGRYPYINGNLIDLDLPHTFVACQAPVPQGVPDFLETLSEKKVDLVVMLTKLREGGVLKAERYWPEEEEDSLSFPESGHDAIKVTRDAEASYEVDAELDIVRRPLVIHVPGKPMHRVLQVQYVGWPDHGVPESAASFDELLSVIKNCVTTSPILVHCSAGIGRTGTLIGAYAALLHIERGILTDSTVYSIVAAMKQKRFGMVQRLEQYAVIYMTVLGRLGVDISGLVSTLNLKA,soluble
2,MAHHHHHHMSTFARRRIIQDLNKINKEKNKSFEASPFADNIMYCHAIIRGPDDTIWECGIFHLIIHFSEEYPVSPPKLRFLSKIYHPNIYSDGNICLDILQNQWSPIYDITSILTSIQSLLNDPNTSSPANPEAARIFINNRNLYNKRVLMCVEDSWEIPKFNINNYS,not soluble
3,MAHHHHHHMSTVEELKFIWKFLFSHMNTEKSKEEICDEKKYEENIILLKKLMRTENIKFDQKYNAINILEKLKDIEDIQYEDILNDYAKNFLTFLKGSFEKVAEEIQINDKISFRRNELIKQDLNNKLQNLNHNYNLEYINLNKCLGTEDFESQLNASLKFNSLKDILSKLLKEMKDYEIQYNNLSDTDKFLDMKICELENYLNNTNQNS,not soluble
4,MAHHHHHHMTGSDEEFEIGDILDIKKKKNGFIYLVNWKGYSDDENTWEPESNLLHLTTFKKKMELLKSAYLNKVDTTQNDGNLLKNHLTSPSSLQEETGTTNITKTKGRNPLISKKKGNKKGVTNKLEAKKLLSTNSDNSQKMSDDEYNESIKQETIENPHDSSLLNVEDVYSVRIKNRKMEFLASLKNASPQWVEESNIRRTGHLNIKVNDFKKYIRRKKTSKGNRIVIKNLHNVGDELYISVIHNINNKEIHSLYPSKVIEYIYPQELLNFLLSRLRYRTA,soluble
5,MAHHHHHHMTQSVSIGADHRLEATTSDCVSSVCFSPKECPMLMTGVASWDGSCSIWQVARNPAGAVISQPAWTTTHDSPLLTMSFSADGRVFFGGCSKTAVMWDLNSNQKAVVASHDLPISCLDFLTLPQTMSQMLITGSWDGKLRWWDLRQQSYVREENLGEPVFALDAQKTVPMMAAATGRLAHVYDVQQMQKVNELKLPDVMKFNLRCITCAPQYDGVGVGSSEGRVSFISMKDAPGCTFKAHITTEKSHYILSQTNFCVHHPTLPLLLSGGGDGNLTVINRADRKVIKTLQCEQKVGTQAIPISAGDISADGSLVAYAHSYDWAMGKSGYRNQPTSVHIRPLS,not soluble
6,MAHHHHHHMTRDDGTQVAQLLSEGKYNLPMFLRYLKASSMEGDQPDKSLLLGILLQSLARFQTSDFTACMCLVPSHVQDSPSVEKELNYIYGLENLLSCGLFARFWTQWSSVKEHLPESFHFEARVRTSILETICITMESIPTEKLATYLAVSPDQVQKVVHNAMKDSEDRDMKVMAYDSGSVVFHRNRFNYPQAGAAQDAIRFTDVSSVIHNDVPRRGAAVAADETRDVRARTWARMADE,soluble
7,MAHHHHHHMTRTKVKKVQMQMKARETVAPPSTACTTTRCLYTLTTFDVKSGGVKTSGEFPAGGGPKLPRDPLLHYFVKSLHGFLSTCLVVTSQRLVTFSANNNFFCIATVFPTLHTSPSVKNSKSLALRGKTENVVTERLGV,not soluble
8,MAHHHHHHMTSFMLATNCPDELCCALCLDSWKKPVELQPCGHIFCQECIGAPRVCPVCRAPVNCTKQPHRSLVNLAQNLPVRCSSCGWTGRREGSDSHTCPTASWSGSTEAPSTTNAQSTCQGSRQQSVADTPWLRYGLTQEEYDSIVALFVFFDSDESGHLCREEMGRLARWLNFARTDDDIDRMFREMDEDGTGTLCLEEFLSWLSKNRPDPSVLYGMSQQQYNCVMMQFRLYDRDRDGFLDADDFSKLAVRIGDVPDIESGMQLFRSITTGHCEKIGLHQFLLYCVGRMFR,not soluble
9,MAHHHHHHMTSVEAENQPVEDPETFVVMEENGAPRDPQVAVSALDEAAEEGAVSGGEREPAAAGDDLSNPHVFKVAAREVDEGYMSVIRGLSAFGRADEEVCRNAVDICKDIIAMEQSLFSEVPSYVTNYASMQRAKTVVLNKAVRPHWTIPTPEGPPRTWEEQRAYVDPGVPLMLPYSAERFKKEHPERALVEGTYHNLFYGDGTQVVFTASADNKRKQIEEEKRKHPHPSYHGPYVFEPQQKKPMRVASDFVPSCAEPDRLRVDLRKKPVTKAKAEKSQKKKVTTK,not soluble
10,MAHHHHHHMTVAKKCMVVLQHGSHGTHLDLACLSQYLKAKDPRLIVWESYKNEGMRTDDGVVPCGERLADNLIREIKELCSTPTQSGGDGGREKVVVQMSFVCHSMGGLIVREALPRVWDKVESQKGKLEIEWNMFCTIATPHGGVCQMASTLRYYLGRLISFFYSTSYHDMFLGSDVLTDRLLSPKHLSCLAAFKRRLLVSSINDILVPLMSSGFMLTPSQRGLPGDMLREEQKQLCAFNEREMYDKMRTITEIPKEEWPANKFLAERRIAKTLVQAVGNFDSVVVDLRSPRLEELYEDRKRRTTAWYGANKRSHQAMVCKPPFDTVEEAFGFVSHMVGDEVLATFQE,not soluble
11,MAHHHHHHMTVKNAAKSGKYVWHAMPEEVRKSLKRGSVDETNGIKMGKKGTHATPSEPIYMEVPPDETQRKEKSPPRGMALPHVSTPNEKQPTPMPGETTNSGDVVVSQESGCVGVTHGTQSLSSSRTLKTKHVLHFRGPGWEKVLRKNKKGLESAFKKDVFEATGLEARRIEELKFEFASMLIVTFVVRRENDDEGTSKLHSDLQACAFPRTVLLYRN,soluble
12,MAHHHHHHMVFSTHGIRVVYNTANVDRSLYAVVHCSDGKYAEVSKDHLNRLKFIEKSSEEEDIEFDYPEAVLESLAQWTLKYGMDGVAVSSTVRPCIYRNVQHVLKDDWEREFFTTRLMNDLNIMHYLQTINAAEKYEMKGFHDFLCVCLSCKLRNEEDTELVHKIMGLEDFVEIGPSDLDEAACRYTWLDQAIKPTVRR,not soluble
13,MAHHHHHHMVQEWWVSAAQEAVISRKATSRAERIVTEADDPRSGTSHFYDSDARLCLVCNARLEGSYSAHSHSVDHKPRVALLKRTIGMILTFLEQAGSSPSLPPPPESDSPYSLPGSKRFLVSVSTHTGTPAAPAPSCFHALYAESPLFAEDGVPSRALLYHRPCTLREFDLVDVIMRRWWNTLHNPPPRRGSISFDRLLSLSSAELQMRRWRVRYLLHFLKSRGVLRSCLTLRSDQVNAAPSPNERIHRGEAFERLEMVGDFFFKSLTPDRMHTVFPADEGGLTAELQCFERALDSNHGLLAIYDYLGLDDIVGCFLANNKAKADVVEAVIGELKVLLWSTEVVWGMEYYAVPGERATHVYLRALVAHTIAELGHTVLMWQLESTLRNCRDFLLKHTVEEYLGAEKGNERRASRGGDGCDVPADLPKYSPLPPLLAWNRRRLGVSMRRGEVPLASKQSRSSIPPSPQDPLRRLAPTASCIPEAIRDHYAVGRKKWSSYACKTAIQALCASLTQTALQHDSGHTADALSLNSSSASLPLSPEPQPSPTTPAYACVPRSVLRALVTANCVVIRNSAPPLARSTSTRRVAG,not soluble
14,MAHHHHHHMWRPRRVQGLGSGEDICHLVSAVRRQGIRSLPSGLVVAAEIAYRCCSYSIESFQTDSTEAKKPSRVVGTAPTERQKRPSALAPSSSIPATEKAGIIVEWVPDALGYHLPLGLRERWEPSSKASPTEAGGLKASNDAETHGTEQQELEEVSSVGNPCASSRVGDGGGGSGHRSGHSDGPPFYGPLPNFATSPVFEWERCLWQWRPVKITPAAGTPHHTSLTVTAPISSSGEKRPLRDEMHCSDGGENDLAEGGLGESSQVYHLVPFLLCPTLEVCATQPLMHGSLRKELAAAQNACHHLRRSWPEDAKQDLLGTRRCPTYSEHETRLWSITIPTPVGELALSSPQDTDGDDANKQNTMLDLPTFAMIEGEPPMRVGGRIRACCGHGITSPAPPEAETWEAATAAARNERSTSAGNAAVPYVHVFCSEMSAACSDSLLSQTGIKASELPTPSSCDVSSPTLPLTRRNVVGGGLAELILAVDRYAALIARGDLALSAACWATLCDTKSWWVVQRLRVCPLEMERELVAATEAHKLWQQYAVSRNSTLVGKSSHGICFYDYPFLAKWPLGRQAATKATAPIRAHTRWRV,not soluble
15,MAHHHHHHMYNPALPNHYRGVVFAAYVRRRQREEAAAAQQQRQPNALASALSASSLAAPSMASVTAPLLGLSAEELHQHRIKESAALGIQRAVMMEKEALEVEHKKRKLEGSDARSRISSRLDKLKALAAKSKAVTGVSASLDAGDAILQAGGPSSPTSSQRTSSSSFDAEAAPSAPLVFQRSSLAAGGYVMAAADPSLPGMLLRTKTRSAVQGKPSSTLLLRFLHDSPVLGWKEAAIAEASTLSSAESSLCAPVLSQVQQLCRRFGFVRSMAAHVYAEDVVTAALARARSQTSAETQVPSAEAVRREQLRVWVRFDSVTEAFKAAESLAKEVSPATPAGRPVFAVAFYPTGLYDSGALELREEDLLSPSA,not soluble
16,MAHHHHHHMYYIYFENVKDEKEKKECEEFIYQIYMMENIKKDAILKLKNEKNENLYLLYLYYKYYYMNDKENVLNEIKQLNTSSCNANILKSRIFFDNDLLDECFDLLENGTIEIKAAKIFFLLNINRQDIVNEIIKDFLHMNEEIPIIKIVLAIYYLFNDNNKESFLIFDDLESLYGSMINDHSNIILNGKAVASILNYEFNDAKEFLKNQINNGDILYNLITCSLYLYELDEANEYLTKLYDNYSSHDSLKVLKKIDDEVDNFVSEF,not soluble
17,MAHHHHHHSLALIVKIGGSIQKDEKDYELIVKKIQDFSKKSDKIIVVTSAIKNVTNELISATSNTDNSPNIVTEIYERHIKLLSKLADGKEFENSFKDISRLSDELFRVAWSIRVLDEVTPRVRDYILSFGERMATLLLSAILRSNGIEAEGIITPPFLTDENYGEANVIEDLSKNEIANILENAKANVIVLPGFIGRTREGRYTTLGRGGSDYTATLLGKLVGVREVRLVTEVPGIMTGDPKKFENAKTISRLSLEEAIELSQLGAKRLHPRTFDPVFGSDMKVIVESLYEDGFTIINGECQNNDGLKGISLLDNAKLITVESTKIVGKIGSAARITNEAKEAGVNIISISQPASETTIQLVVDSLSANRLLSKLEEIRGTLVKDIEVNDINIVGIVGCGIKKKEISTKVLSIASSYDPLAISRGISNVSMTFIVNKDEGEKLAKELHKVIVSGEG,soluble
18,MAHHHHHHSLIQAVLFDLDGTLADTALDLGGALNTLLARHGLPAKSMDEIRTQASHGAAGLIKLGAGITPDHPDYARWRTEYLDEYDSRYAQDTTLFDGVNELIAELGKRGIKWGIITNKPMRFTDKLVPKLGFIIPPAVVVSGDTCGEPKPSVKPMLYACGQIHADPQHTLYVGDAERDIQAGRNAGMTTVLAEWGYIAPEDDTGSWQADFHIRTPLDLLECLDKIQPEG,soluble
19,MAHHHHHHSLISNHFLRDLYAIIVDDVGRFKPSAILDVGCGTGTADYFILSAFPDISVDCIDPSPYMISIARKKLSKFGSRVRAELGSSRSIPFDRRYDFVFTSISFHHWKCREDGLRNMAKYVSDHGVLAVYEYYRPNLRSFHRVAGKHALTMEDVEKLNIEGFTKKYEIRGEMMRIMFQRDEG,soluble
